This is an account of results in the supplement of paper PMC9170038.

This series deals with MS2 coat protein. The series is described as follows: apparent KD of MS2 coat protein; designed switch direction (-1 OFF switch, 1 ON switch): 1; higher = weaker reporter binding. In a few lines: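 The buffer was Tris-HCl pH 7.5 with KCl, MgCl2, BSA, DTT, tRNA and Tween-20. In it, SNAP-549-labelled MS2 coat protein was titrated in doubling steps from 0.7 or 1.5 nM to 3 µM over chip-bound RNA switches transcribed by stalled E. coli RNA polymerase on Illumina chips. Apparent KD is the per-design median over clusters of curve fits to normalised fluorescence.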

[1] abbreviates: input ligand: microRNA oligo, concentration not stated.
Setting [2] is: Eterna round: R95, input ligand: FMN 200 uM.
The mark [3] stands for this setting: Eterna round: R95, input ligand: microRNA oligo, concentration not stated.
[4] abbreviates: Eterna round: R95, input ligand: none.

With “GCUCGACGUAUGGCCUACAUGAGGAUCACCCAUGUGACUGGGCAGGAUAUCUAGAUGCAGAAUGUAGAGAAGGGCCCGUCGAGC [SameState NG3 #48] (Eterna round: R96, puzzle: Same State NG 3)”, the “apparent KD of MS2 coat protein” value runs as follows: (input ligand: FMN 200 uM) 244 nM; under setting [1], 74 nM; (input ligand: none) 194 nM.
For “GGUCCAGCCUGAGCUGGACAAAAGCAUGUACAUGAGGAUCACCCAUGUCAUGUACAAGCUUUUUGCUCGUCUAAAUA [Mat - hsa-mir-208a - 90] (puzzle: Sensor for hsa-mir-208a)”, the “apparent KD of MS2 coat protein” value was determined as 464 nM under setting [2], 16.3 nM under setting [3] and 557 nM under setting [4].
The matching figures for “UUAAAACAUGAGGAUCACCCAUGUAAUAAUAUGGGAGGAUAUCAGAAUGUAUGUAUGUAAUGAGAAGGCCUAAAUU [Mat - Same State 1 - Mod of Eli - D76] (puzzle: Same State 1)”: 63.6 nM, 519 nM and 1280 nM.
For the sequence “AUCCGAACCAUAGGAUAUACUGGCCUCGGGCCAGUAGAAGGGUGGGACAUGAGGAUCACCCAUGUAAAGCACAAUCAGUGCAAA [Ceramace] (Eterna round: R96, puzzle: Same State NG 1)”, the “apparent KD of MS2 coat protein” value reads like this: (input ligand: FMN 200 uM) 167 nM; under setting [1], 119 nM; (input ligand: none) 151 nM.
The matching figures for “CCGGCAAGUAUAGGAUAUCCCGCAACAGAAACGGGAGAAGGGUGCCAAACAUGAGGAUCACCCAUGUACACCGGAAAUAAAUAA [Lazaorra] (Eterna round: R96, puzzle: Same State NG 1)”: 54.9 nM, 56.4 nM and 46.9 nM.
For the sequence “UGUUCGUAGGAAGGAUAUCGAAAUAAAGGCGUCCACAUGAGGAUCACCCAUGUCGGCGGACCAAACGAGAAGGUCUACCCGGAC [Eternabot solution 12] (Eterna round: R96, puzzle: Same State NG 2)”, the “apparent KD of MS2 coat protein” value worked out at 9.42 nM (input ligand: FMN 200 uM), 8.37 nM under setting [1] and 11.6 nM (input ligand: none).
In the case of “UUUGGGUGGCUGGAGGAUAUCCUGGUUGUUACAUGAGGAUCACCCAUGUGCCGCGCGGUGCGCUGGGAGAAGGCUGGCGGCCGUU (puzzle: Same State 2)”, the “apparent KD of MS2 coat protein” value under setting [3] was found to be 71.8 nM.
“AGUGGUGGUGCAGGAUAUGCCUCAAAAGCAUGGGUAGAAGGGCAAUACAAAGAAACUCUGACAUGAGGAUCACCCAUGUAGCAA [Eternabot solution 43] (Eterna round: R96, puzzle: Same State NG 1)”: the “apparent KD of MS2 coat protein” value runs as follows: (input ligand: FMN 200 uM) 449 nM; under setting [1], 241 nM; (input ligand: none) 395 nM.
With “GUGGUCUGACAUGAGGAUCACCCAUGUGGAAUAAAUAAGGGUUAGGAUAUCUUGAGGAUCACCCAAGAGAAGGGAUGGUUGGUG (Eterna round: R96, puzzle: Same State NG 3)”, the “apparent KD of MS2 coat protein” value by setting is: (input ligand: FMN 200 uM) 125 nM; under setting [1], 90.7 nM; (input ligand: none) 124 nM.
With “AUUAUACAUGAGGAUCACCCAUGUCAACAAAGUCGAGGAUAUGGGCAAAUAAAAUAAGAACCAGAAGGCGAAUAAU [salish99_ss1_r3_069] (puzzle: Same State 1)”, the “apparent KD of MS2 coat protein” value by setting is: under setting [2], 51.3 nM; under setting [3], 155 nM; under setting [4], 259 nM.
In the case of “GCCGCGUUUCGCGCCUACAUGAGGAUCACCCAUGUUUGUAGGCAGGAUAUCGCUUGCUUUGCGGGCGAGAAGGGCUGUUGUGGC [salish99_SSNG3_R04_018] (Eterna round: R96, puzzle: Same State NG 3)”, the “apparent KD of MS2 coat protein” value came to 36.8 nM (input ligand: FMN 200 uM), 56.8 nM under setting [1] and 51.6 nM (input ligand: none).
Consider “GGUCCAGCCUGAGCUGGACAAAAGCAUGUACAUGAGGAUCACCCAUGUCAUGUACAAGCUUUUUGCUCGUCUAAAGA [Mat - hsa-mir-208a - 91] (puzzle: Sensor for hsa-mir-208a)”, for which the “apparent KD of MS2 coat protein” value runs as follows: under setting [2], 517 nM; under setting [3], 17.7 nM; under setting [4], 705 nM.
For “AUUUAACAAGCUUUUUGCUCGUCUUAUAAACAUGAGGAUCACCCAUGUAAUAGCGUGAGAGUAAAUUAAUAAAUAAU [JMF 83] (puzzle: Sensor for hsa-mir-208a)” the same measures were 14.5 nM, 44.7 nM and 13.5 nM.
On to “UUCAAUGGGAUAGGAUAUCCUGCGGCGAGGCGUGGAGAAGGGUCAAGUACAUGAGGAUCACCCAUGUUUCGGAAAUAUUCCGAG [Eternabot solution 29] (Eterna round: R96, puzzle: Same State NG 1)”, for which the “apparent KD of MS2 coat protein” value reads like this: (input ligand: FMN 200 uM) 121 nM; under setting [1], 41.5 nM; (input ligand: none) 125 nM.
In the case of “GACAGGCAAGCUUUUUUCUCGUAGUGUAGACAUGAGGAUCACCCAUGUGCUCGCCCUGGAUCUUUGGAUCGCAGAAA [Laaxeso] (puzzle: Sensor for hsa-mir-208a)”, the “apparent KD of MS2 coat protein” value came out at 17.7 nM under setting [2], 14.4 nM under setting [3] and 16.7 nM under setting [4].
Regarding “GAGCCAGUCCGAGGAUAUUCAUUAAAUUAAAUACAUGAGGAUCACCCAUGUAGGCGAGAGCCUUGGGAGAAGGCGGACUGGCUC [Xeonanisa>>4] (Eterna round: R96, puzzle: Same State NG 2)”, the “apparent KD of MS2 coat protein” value is, setting by setting: (input ligand: FMN 200 uM) 15.5 nM; under setting [1], 53.8 nM; (input ligand: none) 97.6 nM.
As for “GUAGAUAUAGAGGAGGAUAUUCGAUGAGGAACAUGAGGAUCACCCAUGUAAGAGAGAGAUGAUGAGAAGAAGGCUUAGAGGGAUG [Altered State 2-4 - Jieux - Same State 2] (puzzle: Same State 2)”, the “apparent KD of MS2 coat protein” value is 25.1 nM under setting [2], 35.8 nM under setting [3] and 36.4 nM under setting [4].
In the case of “GGUGGGUUGCUGCCGGCACAUGAGGAUCACCCAUGUUUUGGGAAGGAUAUGGUACCUAUUUGGUACCAGAAGGUCCCGUUGGUG [salish99_SSNG3_r04_709] (Eterna round: R96, puzzle: Same State NG 3)”, the “apparent KD of MS2 coat protein” value was 978 nM (input ligand: FMN 200 uM), 449 nM under setting [1] and 898 nM (input ligand: none).
Take “ACAUGAGGAUCACCCAUGUAUAGAAUUGAAUGUUAAGAUACGUAGGAUAUCGAGUUUAGUAUGAUCGAGAAGGACGAUCUGAUA [JR_SSNG3_Sub065] (Eterna round: R96, puzzle: Same State NG 3)”: the “apparent KD of MS2 coat protein” value under setting [1] was found to be 14.5 nM.
As for “GUAGCAUACCGAGGAUAUUCAUAUACAUGAGGAUCACCCAUGUUAAAUAAUAGGCGAAAGCCUUGGGAGAAGGCGGAAUGCUAC [Xeonanis - 20 Mod70] (Eterna round: R96, puzzle: Same State NG 2)”, the “apparent KD of MS2 coat protein” value amounted to 10.3 nM (input ligand: FMN 200 uM), 9.72 nM under setting [1] and 12.6 nM (input ligand: none).
With “AGCUAUCGAAAACGAUAGCAAAGGCAUGUACAUGAGGAUCACCCAUGUCAUGUACAAGCUUUUUGCUCGUCUUAAAA [Zipper 23 - 3] (puzzle: Sensor for hsa-mir-208a)”, the “apparent KD of MS2 coat protein” value under setting [2] is 799 nM, the “apparent KD of MS2 coat protein” value under setting [3] was 15.9 nM and the “apparent KD of MS2 coat protein” value under setting [4] amounted to 983 nM.
In the case of “GCUUCGGCGGUAGGAUAUCUAGGAUAUGGGAAGAGCUAAGCUUGGAAGUCACUUCACCCAGAAGGAGAGAAGGACACCUUCGGG [pwkr ssNG2 2FMN + F9.4] (Eterna round: R96, puzzle: Same State NG 2)”, the “apparent KD of MS2 coat protein” value was found to be 230 nM (input ligand: FMN 200 uM), 3.87 nM under setting [1] and 47 nM (input ligand: none).
For “UCAAGCGUUUGGCUCGUUUUAUGUGUUGAACAUGAGGAUCACCCAUGUAUUGUACGAUCCAGUUAGAUGGUAUUUUG [JR_SHM208A_Sub040] (puzzle: Sensor for hsa-mir-208a)”, the “apparent KD of MS2 coat protein” value stood at 46.9 nM under setting [2], 104 nM under setting [3] and 67.6 nM under setting [4].
Consider “AACAAUCUAUCUGAGGAUAUCAUGAAAUAAACAUGAGGAUCACCCAUGUUCAGGAAAACUGCAUAUGAGAAGGCAGAUAGAUUGA [salish99_ss2_r3_035] (puzzle: Same State 2)”, for which the “apparent KD of MS2 coat protein” value was 10.4 nM under setting [2], 16.2 nM under setting [3] and 15.3 nM under setting [4].
Consider “UUCCCAUCGGGAGGAUAUGGAACCUUAUUGGUUCUAGAAGGUCCAACAUGAGGAUCACCCAUGUGGGAGUGGUCUAAUGACCUC [SS NG10LRO03] (Eterna round: R96, puzzle: Same State NG 1)”, for which the “apparent KD of MS2 coat protein” value reads like this: (input ligand: FMN 200 uM) 264 nM; under setting [1], 288 nM; (input ligand: none) 333 nM.
For “AUGAUUAAUGCAGGAUAUGAUUAACAUGAGGAUCACCCAUGUGGUGUUGUGAGUAAGGAGAGUGAUCAGAAGGGCAUUUUUUUU [JMF's solution 34] (Eterna round: R96, puzzle: Same State NG 2)” the same measures were 731 nM, 430 nM and 701 nM.
For “UAGCGCUGUCGAGAGGAUAUGCGGUGAUGGACAUGAGGAUCACCCAUGUUAGCGAUAGCAUUACGGUAGAAGGCUCUACAGCUGU [salish99_ss2_r3_093] (Eterna round: R96, puzzle: Same State 2)” the same measures were 38.2 nM, 342 nM and 694 nM.
With “CAGUGCUGUCGAGAGGAUAUGCGGUGAUGGACAUGAGGAUCACCCAUGUUAGCGACAGCAUCACGGCAGAAGGCUCUACCCACUG [Soteed Omei mod 45] (puzzle: Same State 2)”, under setting [3], the “apparent KD of MS2 coat protein” value stood at 16.7 nM.
